[ ]: non-standard residue; d: D form. The star is where a group is joined. FITC = O=C1OC2(c3ccc(O)cc3Oc3cc(O)ccc32)c2ccc(NC(=S)*)cc21; Ahx = NCCCCCC(=O)O
Legend:
GST-Bcl-XL = target: T1, GST-Bcl-XL (UniProt P08515 1-218 = GST; Q07817 1-211); experiment: fluorescence polarization
T1 construct: Control protein in FP and CD assays
Protocol: (§1) Fluorescence polarization (FP) analysis was used to determine whether NuBCPs interacted directly with Bcl-2. […] GST-Bcl-2, but not GST-Bcl-XL or GST, induced a concentration-dependent FP of FITC-NuBCP-9-r8 and FITC-D-NuBCP-9-r8, while FITC-NuBCP-9/AA-r8 was little affected (FIG. 2C-E). […] Thus, NuBCP-9 and D-NuBCP-9 bind directly and competitively to Bcl-2.
(§2) Fluorescence polarization (FP) assays. GST-Bcl-2, GST-Bcl-XL, or GST protein was briefly incubated with FITC-conjugated peptide with or without competitors in Greiner Fluotrac 600 96-well microplates. Fluorescence polarization was recorded using an Analyst HT 96-384 microplate reader (Molecular Devices, Sunnyvale, Calif.) with excitation wavelength set at 485 nm and dynamic polarizer for emission at 530 nm.

GST = target: T2, GST (UniProt P08515 1-218 = GST); experiment: fluorescence polarization
T2 construct: Control protein in FP and CD assays; also called GST protein
T2 sequence (P08515 whole entry): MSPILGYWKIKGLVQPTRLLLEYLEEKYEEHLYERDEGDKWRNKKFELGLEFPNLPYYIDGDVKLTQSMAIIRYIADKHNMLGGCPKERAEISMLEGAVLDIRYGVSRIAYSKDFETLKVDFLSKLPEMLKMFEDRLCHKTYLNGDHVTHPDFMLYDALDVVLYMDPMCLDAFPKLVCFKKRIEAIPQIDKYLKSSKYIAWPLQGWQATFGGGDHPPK
Protocol: as §1, §2

Nur77 = target: T3, Nur77 (Homo sapiens (Human), UniProt P22736 1-598); experiment: not described
T3 construct: also called TR3; NGFI-B

GST-Bcl-2 [1] = target: T4, GST-Bcl-2 (UniProt P08515 1-218 = GST; P10415 1-218); experiment: circular dichroism of GST-Bcl-2 with peptide, non-linear regression, one-site-binding model
T4 construct: Bacterially expressed, purified GST fusion used in FP, CD and in vitro immunoprecipitation; also called purified GST-Bcl-2 protein; bacterially expressed Bcl-2
T4 sequence (P08515 1-218, tags or fused parts left off): as the sequence (P08515 whole entry) above
Protocol: We then explored whether the Bcl-2 conformational change by Bcl-2 was a direct consequence of Nur77 binding. Experiments were performed to determine whether NuBCPs could induce a conformational change of bacterially expressed Bcl-2. To this end, the ability of purified GST-Bcl-2 protein to react with anti-Bcl-2/BH3 antibody in the presence of NuBCP was analyzed by immunoprecipitation assay. […] In contrast, NuBCP-9, D-NuBCP-9 and NuBCP-9/AA had no effect on CD spectra for GST or Bcl-XL (FIGS. 9-11). Thus, the NuBCP-induced Bcl-2 conformational change observed in cells can be accounted for by direct binding of NuBCPs to Bcl-2.
Circular dichroism (CD) spectroscopy. Stock solutions of 3 mM peptide in 30% acetonitrile/water were added to 0.5 mL of 2 μM purified GST-proteins in PBS, pH 7.6. CD spectra were obtained in a 0.2 cm pathlength cell at 20° C. using an AVIV 62 DS spectropolarimeter for a wavelength range from 200 to 260 nm with a step size of 1 nm averaged for 5 sec. Three spectra were corrected for background and averaged for each sample. The Kd was determined using nonlinear regression analysis for a one-site-binding model (χ2>0.98). Stoichiometry was determined from a […] (Jones, G. et al. 2002 Tet. Let. 43 :6079-6082).

GST-Bcl-2 [2] = target: T4, GST-Bcl-2; experiment: fluorescence polarization competition
Protocol: as §1, §2

Bcl-2 [3] = target: T5, Bcl-2 (UniProt P10415 1-239); experiment: immunoprecipitation
T5 construct: Cellular Bcl-2 in co-immunoprecipitation and immunostaining assays; also called endogenous Bcl-2
T5 sequence (P10415 whole entry): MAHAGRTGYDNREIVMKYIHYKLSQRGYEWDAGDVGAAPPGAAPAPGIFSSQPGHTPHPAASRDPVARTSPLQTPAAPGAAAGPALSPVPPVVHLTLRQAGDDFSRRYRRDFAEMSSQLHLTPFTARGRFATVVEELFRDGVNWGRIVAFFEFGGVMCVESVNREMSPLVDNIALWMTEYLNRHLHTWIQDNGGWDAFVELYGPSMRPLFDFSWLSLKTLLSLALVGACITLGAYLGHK

Bcl-2 [4] = target: T5, Bcl-2; experiment: not described at this place

T1 sequence (P08515 1-218, tags or fused parts left off): as the sequence (P08515 whole entry) above

B1: FITC-NuBCP-9-r8 (peptide)
peptide: {FITC}-FSRSLHSLLG[Ahx][dR][dR][dR][dR][dR][dR][dR][dR]-NH2
modifications: not fully specified
notes: The point of attachment of FITC is not described beyond the name; also called FITC-L-NuBCP-9-r8
- binding result (GST-Bcl-XL): no binding
- binding result (GST): no binding

B2: Bfl-1 (other, UniProt Q16548 1-175, looked up)
chain: MTDCEFGYIYRLAQDYLQCVLQIPQPGSGPSKTSRVLQNVAFSVQKEVEKNLKSCLDNVNVVSVDTARTLFNQVMEKEFEDGIINWGRIVTIFAFEGILIKKLLRQQIAPDVDTYKEISYFVAEFIMNNTGEWIRQNGGWENGFVKKFEPKSGWMTFLEVTGKICEMLSLLKQYC
- binding result (Nur77): binds

Binder: Ac-FSRSLHSLL-NH2 [NuBCP-9 (unconjugated)]
- Kd (GST-Bcl-2 [1]): 2100 nM

Binder: Ac-ASRSLHSLA-NH2 (Unconjugated form) [NuBCP-9/AA (unconjugated)]
- binding result (GST-Bcl-2 [2]): no binding

B3: NuBCP-20-r8 (peptide)
peptide: GDWIDSILAFSRSLHSLLVDKKCXRRRRRRRR
modifications: not fully specified; N-terminal acetyl; C-terminal Cys thiol linked to chloroacetylated 6-aminohexanoyl (X); eight D-arginines (r8)
notes: also called NuBCP-20-r8-peptide; TR3 peptide
- binding result (Bcl-2 [3]): binds

B4: Nur77 fragment DC-3 (other)
chain: GLVLHRLQCARGFGDWIDSILAFSRSLHSLLVDVPAFACLSALVLITDRHGLQEPRRVEELQNRIASCLKEHVAAVAGEPQPASCLSRLLGKLPELRTLCTQGLQRIFYLKLEDLVPPPPIIDKIFMDTLPF
- binding result (Bcl-2 [4]): binds

B5: Bcl-B (other, UniProt Q9HD36 1-204, looked up)
chain: MVDQLRERTTMADPLRERTELLLADYLGYCAREPGTPEPAPSTPEAAVLRSAAARLRQIHRSFFSAYLGYPGNRFELVALMADSVLSDSPGPTWGRVVTLVTFAGTLLERGPLVTARWKKWGFQPRLKEQEGDVARDCQRLVALLSSRLMGQHRAWLQAQGGWDGFCHFFRTPFPLAFWRKQLVQAFLSCLLTTAFIYLWTRLL
- binding result (Nur77): binds

Reference: patent US20070054863A1 (SANFORD BURNHAM MEDICAL RESEARCH INSTITUTE, published 2007)
